19 molecules from patent US20220125947A1 (published 2022) can be followed below.

Sequences and labels used below:
B1: VG9B421 (antibody, human IgG1, kappa)
heavy: not shown
light: DIQMTQSPSSVSASVGDRVTITCRASQGINSWLAWYQQKPGNAPKLLIYAASSLQSGVPSRFSGIGSGTDFIFTISSLQPEDFASYYCQQANSFPWTFGQGTRLEIKRTVAAPSVFIFPPSDEQLKSGTASVVCLLNNFYPREAKVQWKVDNALQSGNSQESVTEQDSKDSTYSLSSTLTLSKADYEKHKVYACEVTHQGLSSPVTKSFNRGEC
notes: IgG1, kappa; also called antibody #34
B2: VG9B428 (antibody, human IgG1, kappa)
heavy: not shown
light: EIVMTQSPSSVSASVGDRVTITCRASQGINSWLAWYQQKPGNAPKLLIYAASSLQSGVPSRFSGIGSGTDFIFTISSLQPEDFASYYCQQANSFPWTFGQGTKVEIKRTVAAPSVFIFPPSDEQLKSGTASVVCLLNNFYPREAKVQWKVDNALQSGNSQESVTEQDSKDSTYSLSSTLTLSKADYEKHKVYACEVTHQGLSSPVTKSFNRGEC
notes: IgG1, kappa; also called antibody #18
B3: VG9B384 (antibody, human IgG1, lambda, V domains shown)
VH: QVQLQESGPALVKPTQTLTLTCTFSGFSLSSSGMCVSWIRQPPGKALEWLTLIDWFDDKYYSTSLKTRLTISKDTSKNQVVLTMTNMDPVDTATYYCARIRGTGAYYYGLDVWGQGTMVTVSS
VL: SYELMQPPSVSVSPGQTASITCSGNELGDKYASWYQQQPGQSPVLVIYQDNKRPSGIPERFSGSNSGNTATLTISGTQAMDEADYYCQAWDSSKVVFGGGTKLTVLG
notes: IgG1, lambda; also called antibody #36
B4: VG9B88 (antibody, human IgG1, kappa, V domains shown)
VH: EVQLVESGGGLVKPGGSLRLSCAVSGFTFSSYTMNWVRQAPGKGLEWVSSISTSSSYIDYADSVKGRFTISRDNAKKSLYLQMNSLRAEDTAVYYCARDGDMVAPIKGSFDYWGQGTLVTVSS
VL: EIVLTQSPLSLPVTPGEPASISCRSSQSLLNSDDGNTYLDWYLQKPGQSPQLLIYTLSYRASGVPDRFSGSGSGTDFTLKISRVEAEDVGVYYCMQRIEFPITFGQGTRLEIKR
notes: IgG1, kappa; also called antibody #35
B5: VG9B430 (antibody, human IgG1, kappa, V domains shown)
VH: EVQLLESGGGLVKPGGSLRLSCSASGFTFSSYDMNWVRQAPGKGLEWVSSISSSSSYIYYADSVKGRFTISRDNAKNSLYLQMNSLRAEDTAVYHCARDVGVTTDYYYYGMDVWGQGTMVTVSS
VL: EIVLTQSPGTLSLSPGDRATLSCRASQSVASSYLAWYQQKPGQSPRLLIYGASSRATGIPDRFSGSGSGTDFTLTISRLEPEDFAVYYCQQYGSSPPYTFGQGTKLEIKR
notes: IgG1, kappa; also called antibody #19
B6: VG9B73 (antibody, human IgG1, kappa, V domains shown)
VH: EVQLVQSGGGLVKPGGSLRLSCAASGFTFSNYDMNWVRQAPGKGLEWVSSISSSSSYIYYADSVKGRFTISRDNARNSLFLQMSSLRAEDTAVYYCAREIGVTGTTYYQDYGMDVWGQGTTVTVSS
VL: EIVMTQSPGTLSLSPGERATLSCRASQSFSSNYLAWYQQKPGQAPRLLIYGASSRATGIPDRFSGSGSGTDFTLTISRLEPEDFALYYCQQYGSSPPFTFGQGTKVEIKR
notes: IgG1, kappa; also called antibody #22
B7: VG9B133 (antibody, human IgG1, kappa, V domains shown)
VH: EVQLVESGGGLVKPGGSLRLSCAAAGFTFSNYDMNWVRQVPGKGLEWVSSISSSSSYIYYADSVKGRFTISRDNAKNSLYLQMNTLRAEDTAVYYCARDLGITGTTMDYYYGMDVWGQGTMVTVSS
VL: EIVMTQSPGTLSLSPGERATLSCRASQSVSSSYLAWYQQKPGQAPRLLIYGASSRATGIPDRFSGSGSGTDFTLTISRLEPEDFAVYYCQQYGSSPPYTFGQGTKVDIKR
notes: IgG1, kappa; also called antibody #23
B8: VG9B98 (antibody, human IgG1, kappa, V domains shown)
VH: EVQLVQSGGDLVKSGGSLRLSCAASGFTFSSYSMYWVRQAPGKGLEWVSSIGSSSTYIFYADSVKGRFTISRDNAMTSLYLQMNRLGAEDSAVYYCARDGELGPFEYWGQGTLVTVSS
VL: EIVLTQSPGTLSLSPGERATLSCRASQSVSTSYLAWFQQKPGQAPRLLIFGTSSRATGIPDRFSGSGSGTDFTLTISRLEPEDFAVYHCLQYGRSPLTFGGGTKVDIKR
notes: IgG1, kappa; also called antibody #21
B9: VG9B419 (antibody, human IgG1, kappa)
heavy: not shown
light: EIVLTQSPGTLSLSPGDRATLSCRASQSVASSYLAWYQQKPGQSPRLLIYGASSRATGIPDRFSGSGSGTDFTLTISRLEPEDFAVYYCQQYGSSPPYTFGQGTKVEIKRTVAAPSVFIFPPSDEQLKSGTASVVCLLNNFYPREAKVQWKVDNALQSGNSQESVTEQDSKDSTYSLSSTLTLSKADYEKHKVYACEVTHQGLSSPVTKSFNRGEC
notes: IgG1, kappa; also called antibody #29
B10: VG9B413 (antibody, human IgG1, kappa)
heavy: not shown
light: EIVMTQSPGTLSLSPGDRATLSCRASQSVASSYLAWYQQKPGQSPRLLIYGASSRATGIPDRFSGSGSGTDFTLTISRLEPEDFAVYYCQQYGSSPPYTFGQGTKVEIKRTVAAPSVFIFPPSDEQLKSGTASVVCLLNNFYPREAKVQWKVDNALQSGNSQESVTEQDSKDSTYSLSSTLTLSKADYEKHKVYACEVTHQGLSSPVTKSFNRGEC
notes: IgG1, kappa; also called antibody #37
B11: VG9B418 (antibody, human IgG1, kappa)
heavy: not shown
light: EIVLTQSPGTLSLSPGDRATLSCRASQSVASSYLAWYQQKPGQSPRLLIYGASSRATGIPDRFSGSGSGTDFTLTISRLEPEDFAVYYCQQYGSSPPYTFGQGTKLEIKRTVAAPSVFIFPPSDEQLKSGTASVVCLLNNFYPREAKVQWKVDNALQSGNSQESVTEQDSKDSTYSLSSTLTLSKADYEKHKVYACEVTHQGLSSPVTKSFNRGEC
notes: IgG1, kappa; also called antibody #32
B12: VG9B472 (antibody, human IgG1, kappa, V domains shown)
VH: QVQLVESGGGLVKPGGSLRLSCAASGFTFSHYDMNWVRQAPGKGLEWVSSISSSSSYIFYADSVKGRFTISRDNAKNSLLLQMNSLRAEDTAVYHCARDRGVGDTSDYYSFGLDVWGQGTTVTVSS
VL: EIVLTQSPSSLSASVGDRVTITCRASQGIATYLAWYQQKPGKVPNLLIYAASTLQSGVPSRFSGSGSGTDFTLTISSLQPEDVATYYCQKYNSAPPWTFGQGTKVEIKR
notes: IgG1, kappa; also called antibody #33
B13: VG9B143 (antibody, human IgG1, lambda, V domains shown)
VH: EVQLVESGGGLVQPGGSLRLSCAASGFTFSTYGMNWVRQAPGKGLEWISYISTSSYTIYYSDSVKGRFTVSRDNAKNSLYLQMNSLRDEDTAVYYCAREGDWWYFDLWGRGTTVTVSS
VL: QSALTQPASVSGSPGQSITISCTGTSSDVGGYNYVSWYQQHPGKAPKLMIYEVSNRPSGVSYRFSGSKSGNTASLTISGLQAEDEADYYCSSYTSSSTLVFGGGTKLTVLG
notes: IgG1, lambda; also called antibody #31
B14: VG9B429 (antibody, human IgG1, kappa)
heavy: not shown
light: DIQMTQSPSSVSASVGDRVTITCRASQGINSWLAWYQQKPGNAPKLLIYAASSLQSGVPSRFSGIGSGTDFIFTISSLQPEDFASYYCQQANSFPWTFGQGTRLEIKRTVAAPSVFIFPPSDEQLKSGTASVVCLLNNFYPREAKVQWKVDNALQSGNSQESVTEQDSKDSTYSLSSTLTLSKADYEKHKVYACEVTHQGLSSPVTKSFNRGEC
notes: IgG1, kappa
B15: VG9B414 (antibody, human IgG1, kappa)
heavy: not shown
light: EIVMTQSPSSVSASVGDRVTITCRASQGINSWLAWYQQKPGNAPKLLIYAASSLQSGVPSRFSGIGSGTDFIFTISSLQPEDFASYYCQQANSFPWTFGQGTRLEIKRTVAAPSVFIFPPSDEQLKSGTASVVCLLNNFYPREAKVQWKVDNALQSGNSQESVTEQDSKDSTYSLSSTLTLSKADYEKHKVYACEVTHQGLSSPVTKSFNRGEC
notes: IgG1, kappa
B16: VG9B195 (antibody, human IgG1, lambda, V domains shown)
VH: EVQLVESGGGLVKPGGSLRLSCAASGFTFSPYTMNWVRQAPGKGLEWVSSISSSSSYMYYADSVKGRFTISRDNAKNSLYLQMNSLRAEDTAVYYCARDGDLVGPTYYFDYWGQGTLVTVSS
VL: SYELMQPPSVSVSPGQTASITCSGDKLGDKYACWYQQKPGQSPVLVIYQHNKRPSGIPERFSGSNSGKTATLTISGTQAMDEADYYCQAWDSTTVVFGGGTKLTVLG
notes: IgG1, lambda
B17: VG9B140 (antibody, human IgG1, kappa, V domains shown)
VH: EVQLVESGGGLVKPGGSLRLSCAGSGFTFRSYDMNWVRQAPGKGLEWVSSISTSSGYIYYADSVKGRFTISRDNAKNSLSLQMNSLRAEDTAVFYCARDRGIAVAGDYYYGMDVWGQGTMVTVSS
VL: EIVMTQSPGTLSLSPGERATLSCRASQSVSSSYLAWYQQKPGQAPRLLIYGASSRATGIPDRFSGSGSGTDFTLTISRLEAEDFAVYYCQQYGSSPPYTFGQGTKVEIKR
notes: IgG1, kappa
B18: VG9B80 (antibody, human IgG1, kappa, V domains shown)
VH: EVQLVQSGGGLVKSGGSLRLSCAASGFTFSTYSMNWVRQAPGKGLEWVSSISSSSSYIFYADSVKGRIIISRDNAKNSLYLQMNSVRADDTAVYYCAKDGELGVFDYWGQGTLVTVSS
VL: EIVLTQSPGTLSLSAGERATLSCRASQSISSSYLAWYQQKPGQAPRVLIYGPSGRATGIPDRFRGSGSGTDFTLTISRLEPEDFAVYYCQQFGRSPLTFGGGTKVEIKR
notes: IgG1, kappa
B19: VG9B54 (antibody, human IgG1, kappa, V domains shown)
VH: EVQLVESGGGLVKPGGSLRLSCAASGFAFSSYSLTWVRQAPGKGLEWVSSISSSSSYIFYADSVKGRFTISRDNAKNSLYLQMNSLRAEDTAVYYCATDGELGPFDYWGQGTTVTVSS
VL: EIVMTQSPGTLSLSPGERATLSCRASQSVSSSYLAWFQQKPGQAPRRLIYGASSRATGIPDRFSGSGSGTDFTLTISRLEPEDFAVYYCQQYGRSPLTFGGGTKVEIKR
notes: IgG1, kappa

For one assay, the target named is T1, γδ T cell receptor on human γδ T cells (human).
T1 construct: also called AG000003021 (γδ T cells)
The assay is described as follows: flow cytometry, dose-response binding at 37 C on human γδ T cells. Here is the method: (§1) Binding of antibodies to human γδ T cells or SKW cell lines expressing Vγ9/Vδ2, Vγ9/Vδ2 or Vγ5/Vδ2 was carried out by flow cytometry. Briefly, the cells were centrifuged at 300×g for 5 minutes and the pellet was resuspended in 34 ml fresh media (in RPMI+10% FBS). 50 μL of the cells were then plated (44K cells/well) into assay plates. Samples were incubated for one hour at 37° C. in tissue culture (TC) incubator followed by wash steps by adding 100 μl FACS staining buffer. Secondary detention antibodies (A647 conjugated anti-human IgG Fc specific antibody (2 μg/mL) along with AF488 anti mouse CD3, clone OKT3 at 1 ug/mL) were added at 50 μL/well to appropriate wells according to the plate map. After incubating for 60 minutes at 37° C. in the TC incubator, cells were again washed as described above. This is followed by resuspension in 20 μL/well running buffer containing 1:1000 dilution of Sytox blue dead cell stain and the plates were run on iQue Screener.
(§2) Gating and data analysis: Human anti-human Vγ9 antibody (VG9B2 mAb at 10 nM) was used to mark the gating of positive population. All cells were first gated for singlets on SCS-A vs. SCS-H dot plot, live/dead followed by CD3 positive population, and this subset of CD3 positive population was gated for Vγ9 positive binding using positive control mAb. Cells were also assessed for cell binding of control mAbs by RL1 (A647) Geomeans from the live cell population. Advanced metrics were used and normalization metrics were chosen to calculate fold over background wells containing secondary antibody alone (designated as ‘background’ within ForeCyt settings).
In general terms: In flow cytometry, cells or beads pass a laser one at a time.
B1: the “Max. Activity” value is 2610 fold over background.
Still for that read-out and setting: the value for B2 was 2980 fold over background; that for B3 was 2550 fold over background.
Consider B4, for which the “Max. Activity” value was 2560 fold over background.
Same read-out and setting: the value for B5 was 2970 fold over background; that for B6 was 2840 fold over background.
Consider B7, for which the “Max. Activity” value was 2840 fold over background.
On the same count and under the same terms, the same measure for B8: 2880 fold over background; for B9: 2690 fold over background; for B10: 2470 fold over background.
As for B11, the “Max. Activity” value is 2630 fold over background.
With B12, the “Max. Activity” value was found to be 2620 fold over background.
For B13, the “Max. Activity” value came out at 2630 fold over background.

The next assay concerns the target γδ T cell receptor on human γδ T cells (AG000003021) (human). The assay is described as follows: flow cytometry, DRC binding at 37°C on human γδ T cells. As to the method: as §1, §2
Take B14: the “Max. Activity” value worked out at 3640 fold over background.
For the molecule B15, the “Max. Activity” value is 3300 fold over background.
For B16, the “Max. Activity” value was 3260 fold over background.
Same read-out and setting: the same measure for B17: 3230 fold over background; for B18: 3480 fold over background; for B19: 4290 fold over background.
